Legend:
[1] = Particle size and polydispersity by dynamic light scattering; type: physicochemical; details: LL37 pre-ion paired with SDS 1:1 charge ratio, PCL5k-b-PEG5k NPs
[2] = Encapsulation efficiency (ultrafiltration, BCA assay); type: physicochemical; details: LL37:SDS 1:1 PCL5k-b-PEG5k NPs

Substance: LL37: cationic antibiotic peptide, 1719 Da, sequence FKRIVQRIKDFLR (nanoparticle formulation; LL37) [reference compound]
- NP diameter [1]: ~120 nm
- Encapsulation efficiency [2]: over 95%

— patent US12357582B2, “Hydrophobic ion pairing and flash nanoprecipitation for formation of controlled-release nanocarrier formulations” (The Trustees of Princeton University, priority 2017, dated 2025)
